Target: NS2/3 (810-1615BK): HCV residues 810-1615 of the BK strain, all of NS2 and most of NS3 (Hepatitis C virus, BK strain) (UniProt P26663)
Experiment: co-immunoprecipitation with anti-HSP90 mAb 3G3; NS2/3 synthesized in reticulocyte lysate with or without 10 µM geldanamycin (small molecule)

UniProt P26663, sequence (P26663 810-1615): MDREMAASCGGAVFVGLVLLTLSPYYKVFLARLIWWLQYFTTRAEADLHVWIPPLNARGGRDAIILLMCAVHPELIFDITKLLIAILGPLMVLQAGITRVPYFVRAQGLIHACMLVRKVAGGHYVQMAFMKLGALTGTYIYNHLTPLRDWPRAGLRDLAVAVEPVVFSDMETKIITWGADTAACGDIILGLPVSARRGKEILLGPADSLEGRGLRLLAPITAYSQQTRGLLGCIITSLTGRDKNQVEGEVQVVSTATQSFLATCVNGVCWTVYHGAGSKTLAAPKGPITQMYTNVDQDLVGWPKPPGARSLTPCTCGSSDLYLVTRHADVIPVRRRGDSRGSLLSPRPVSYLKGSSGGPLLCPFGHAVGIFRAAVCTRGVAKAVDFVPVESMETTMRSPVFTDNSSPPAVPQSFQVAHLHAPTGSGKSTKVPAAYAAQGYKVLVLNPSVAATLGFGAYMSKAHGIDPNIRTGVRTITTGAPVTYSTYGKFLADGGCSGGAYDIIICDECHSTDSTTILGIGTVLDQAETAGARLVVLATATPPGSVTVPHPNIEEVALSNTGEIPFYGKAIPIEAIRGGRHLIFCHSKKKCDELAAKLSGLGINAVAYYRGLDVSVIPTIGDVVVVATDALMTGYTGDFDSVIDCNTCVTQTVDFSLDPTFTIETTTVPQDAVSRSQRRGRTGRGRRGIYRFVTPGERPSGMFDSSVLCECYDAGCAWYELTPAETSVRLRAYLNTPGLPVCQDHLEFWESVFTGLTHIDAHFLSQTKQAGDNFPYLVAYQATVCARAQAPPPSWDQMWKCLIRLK

**Q.** For “heat shock protein 90 (HSP90) (from UniProt P30947 2-726)”, which decrease of the amount of NS2/3 co-immunoprecipitated in the presence of 10 µM geldanamycin is on record?
**A.** 60%

— patent US20030211469A1, “Inhibiting hepatitis c virus processing and replication” (priority 2003, published 2003)
